Usually Kd stands for the equilibrium constant for the complex coming apart. A lower Kd goes with a tighter complex. By stoichiometry N is commonly meant a count of units in the complex or per binding partner.

Assay [1] addresses S100A1. The assay is described as follows: ITC. A general note: ITC needs no label: the signal is the heat of the interaction.
Assay [2] deals with S100A1. The experiment in a line: other fluorescence titration.

In the assay with S100A1 [1], “S100A4 (from UniProt P26447 4-101) (natural protein)” returned a Kd of 6.37 µM and a stoichiometry N of 1. In the assay with S100A1 [2], this substance came in with a Kd of 10 µM.

The record behind these values is article doi:10.1101/391136.
